Experimental data as given in the supplement of paper PMC12042874.
± gives the uncertainty stated by the source.

Assay: amyloid nucleation score (Sup35N fusion, yeast selection) (log enrichment); library NNK3; higher = more nucleation; inactive = no reads after selection
Outline: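 In psi-negative yeast, Sup35N fusions carrying peptides of 20 random codons were induced with 100 μM copper sulfate for 24 hours. The cells then grew 7 days at 30°C on medium lacking adenine and uracil, and plasmid inserts from input and output were Illumina-sequenced, excluding sequences with under 100 input reads. Nucleation score is the DiMSum log enrichment of output over input reads, centred on the mode score of non-aggregating sequences.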

SCMSYDLRQL
amyloid nucleation score: inactive

NFHQMW
amyloid nucleation score: inactive

DCFSGIGCSRRKT
amyloid nucleation score: inactive

GWELTFRSEF
amyloid nucleation score: inactive

GSSRQNY
amyloid nucleation score: inactive

IDSNGYVLLVRDGREKVVRC
amyloid nucleation score: 0.204 ± 0.29

LFMLVAE
amyloid nucleation score: inactive

AIIVQLIDLLMRPARPVFVE
amyloid nucleation score: inactive

IIVMDCNGKLNGINHWVRVD
amyloid nucleation score: inactive

GRRMSNLEKPVLLDIKANFL
amyloid nucleation score: inactive

FWIWIWRIWYDGNEDNLDHF
amyloid nucleation score: inactive

AIIVCDC
amyloid nucleation score: inactive

RSVVRFWFFLINRHVYELSL
amyloid nucleation score: inactive

AKARMNGEDGARLTSMHSLY
amyloid nucleation score: inactive

LCHRY
amyloid nucleation score: inactive

HGMVRCKSDQACDSMVGCVR
amyloid nucleation score: inactive

MYQVDMMLCTITDWVGSNWY
amyloid nucleation score: 0.666 ± 0.27

LVFPVKKSLVCEGV
amyloid nucleation score: inactive

GNLLMYHGIWGTNALEDRYL
amyloid nucleation score: inactive

FALTIGSFSRMNHTVPNPFE
amyloid nucleation score: inactive

SYMYLRGVLRYLVDMFALWI
amyloid nucleation score: inactive

SGLVCVT
amyloid nucleation score: inactive

RLGEGKCTPYQWFVSNSTSN
amyloid nucleation score: -0.166 ± 0.66

FSDCFSRLVYPRGNNLV
amyloid nucleation score: inactive

SMGRYDLLPTPDVVSLSYNM
amyloid nucleation score: inactive

GILSKIDVSWWRMAVSVKCW
amyloid nucleation score: inactive

SRQNIFLLRLKTMTGQSVNI
amyloid nucleation score: inactive

FGYYTWTAYER
amyloid nucleation score: inactive

LSSIAFCFN
amyloid nucleation score: 1.15 ± 0.15

LLCFVDVSYVHNA
amyloid nucleation score: 0.834 ± 0.23

YFFSVAISKVYDFSVKSRCT
amyloid nucleation score: 1.98 ± 0.086

SWVTDWIL
amyloid nucleation score: inactive

MNNCLSVDKCFHFMLGFSP
amyloid nucleation score: inactive

PTIQQDWIAFYIHSCEFLVL
amyloid nucleation score: inactive

YITDYNQVSAHTQNKKTMGY
amyloid nucleation score: inactive

SLFVLCFH
amyloid nucleation score: 0.717 ± 0.13

GVHDRLTVSRFCLGVNGDGV
amyloid nucleation score: inactive

EDAWMIVRISGC
amyloid nucleation score: inactive

VYLDYGGLHLRVLHTCRFYC
amyloid nucleation score: inactive

GNNVTHSRDRCSMWYWVHLL
amyloid nucleation score: inactive

ADWYWFMAMQRNNLL
amyloid nucleation score: inactive

VQSTVVQVGDWY
amyloid nucleation score: inactive

FVYILGTMMNRRGFDPWIGD
amyloid nucleation score: 0.631 ± 0.32

YPRTSFRFKGCDKEVVSDLL
amyloid nucleation score: inactive

YVYSRVMECKDRHYETYFVA
amyloid nucleation score: inactive

NDVPLDRQLVDGYIASARFG
amyloid nucleation score: inactive

LMNEY
amyloid nucleation score: inactive

GQNPSLRLVKESGF
amyloid nucleation score: inactive

NKFFDI
amyloid nucleation score: inactive

LGVALVTICVLRECGKILYI
amyloid nucleation score: -0.107 ± 0.68

STSVSYEWPDLGACIGGDFG
amyloid nucleation score: inactive

GFSYSWNLFILFGQQICWIW
amyloid nucleation score: inactive

MVFQYRYFSLLLVWSNCSGA
amyloid nucleation score: inactive

WIMWNMRAKNLKLLPARARV
amyloid nucleation score: inactive

SCRVTPVLR
amyloid nucleation score: inactive

LAGSSVVKLYGPVLRFFSSL
amyloid nucleation score: inactive

FVRIHVGSSTGIF
amyloid nucleation score: inactive

ESWVFRTRDMPGEFTSSVCM
amyloid nucleation score: inactive

RFKYPPTFKMNSSSFFQSLL
amyloid nucleation score: inactive

CSRLPVHRFIP
amyloid nucleation score: inactive

DSCAIES
amyloid nucleation score: inactive

SFMRRCNVCIRLYSLAFDMT
amyloid nucleation score: 0.542 ± 0.23

IRSTGLINFQYWKMKTFLII
amyloid nucleation score: inactive

QTVNWSDDL
amyloid nucleation score: inactive

TRMGFYKAWYTAYVWRHALL
amyloid nucleation score: inactive

SDVIGLLFGEYNISVVLRGR
amyloid nucleation score: inactive

TTLLFMKH
amyloid nucleation score: inactive

ERRRVRP
amyloid nucleation score: inactive

EDSRLLGC
amyloid nucleation score: 0.724 ± 0.14

HVFRLAWTMKLWEADTLS
amyloid nucleation score: inactive

MSIMVASRLALARNVPLQKV
amyloid nucleation score: inactive

KVVMGVGLQRDESGIEGQLG
amyloid nucleation score: inactive

LYSGFI
amyloid nucleation score: inactive

NEMHFLS
amyloid nucleation score: inactive

FLRLSMKLHNLWYLLGSLWS
amyloid nucleation score: inactive

AKTSRMNFKNNFMCQGCKWS
amyloid nucleation score: -0.604 ± 0.88

RKSSSVRFFEHCVVSDVWLV
amyloid nucleation score: inactive

GDILGHRRHSVVRSRRQSLT
amyloid nucleation score: inactive

YVCCHERWVGFYSGK
amyloid nucleation score: inactive

DVRRWNNYDLRGWVVA
amyloid nucleation score: inactive

SYAGKGLTLQTHHDWRSGNG
amyloid nucleation score: inactive

LQLWVSFSSVKLCYCISHSF
amyloid nucleation score: inactive

RFLSMSTLKRDS
amyloid nucleation score: inactive

VTRISGTETSDVYINI
amyloid nucleation score: 0.101 ± 0.6

GTALLRFGIVGPNDLVRLCC
amyloid nucleation score: inactive

YRSRLYNCFFGQFYMSLTNM
amyloid nucleation score: 2.07 ± 0.064

VTYYKSMYTREHFWTLGNSF
amyloid nucleation score: 0.69 ± 0.21

EGRSNNLCSSSSLWQVHAAL
amyloid nucleation score: inactive

KWASFLFYFDVMSYSARELN
amyloid nucleation score: -0.32 ± 0.84

KGVGFPVCTSNG
amyloid nucleation score: inactive

YCGNLYRDFLGQQPF
amyloid nucleation score: inactive

VRYRVIHMDTFVS
amyloid nucleation score: 0.933 ± 0.16

CSCWTISLFCLWQTLRFPPI
amyloid nucleation score: 0.438 ± 0.23

CAIRDS
amyloid nucleation score: -0.647 ± 0.41

KTKGICSSMLVFC
amyloid nucleation score: inactive

DGEASTRVSCGDDIFRKTSS
amyloid nucleation score: 1.03 ± 0.16

TSKRDYDRCRFL
amyloid nucleation score: inactive

LVLGWWAIFGVDYGHSSYLL
amyloid nucleation score: inactive

SVTFDAWYCWMN
amyloid nucleation score: inactive

LRSVLSVGGEMAYINCNQLL
amyloid nucleation score: inactive

QTQKLFQYI
amyloid nucleation score: inactive

AGAVYVTAPLIAREDVVACY
amyloid nucleation score: inactive

IAGMCGRGWREPLVERSGKD
amyloid nucleation score: inactive

NALLAFPYQGSMHKCGLGRY
amyloid nucleation score: inactive

LFCSYNRRGAHLAGCAR
amyloid nucleation score: inactive

HKQCWYILVNVRLMSRSRRV
amyloid nucleation score: 0.818 ± 0.13

LPRTYRKALVPNVVVFSYLT
amyloid nucleation score: inactive

SPNWGLLGICLSTSRVQAL
amyloid nucleation score: 1.86 ± 0.082

KLDSLPEYFSATLWLDMSVF
amyloid nucleation score: inactive

IKWVCTEVRSGCLSVDCVLV
amyloid nucleation score: inactive

EFSVLWMLQMDHSTLKFANS
amyloid nucleation score: inactive

ILSVYDFNWFWKAKRDLYIS
amyloid nucleation score: inactive

KEDKPESTDYNVNT
amyloid nucleation score: inactive

SVRVYGDCLCECWSCYTPRT
amyloid nucleation score: 0.502 ± 0.32

MSCYVV
amyloid nucleation score: inactive

KWDSKFRYLADGHNQLPC
amyloid nucleation score: 0.605 ± 0.38

TCFFISSIFSFDKHVIVCCA
amyloid nucleation score: 0.536 ± 0.32

WSRSNGVFVGGRNCFLAQDF
amyloid nucleation score: inactive

RSNWPSTILTSWSARCHWLS
amyloid nucleation score: inactive

MLFVEFSMGSHCRET
amyloid nucleation score: 1.53 ± 0.1

RNYNVV
amyloid nucleation score: inactive

LKYLCYHRQCSLMPRCWMDR
amyloid nucleation score: inactive

RKERGSVFGSIWQFSCIRR
amyloid nucleation score: 0.731 ± 0.25

TCCCVYGTMIISEYFHGSNM
amyloid nucleation score: 2.73 ± 0.056

FRAYWLYISALAHQIITMLK
amyloid nucleation score: inactive

FVLQFSSGCYFGPD
amyloid nucleation score: inactive

CEPMRYNCFCGFCIYDVRV
amyloid nucleation score: 2.36 ± 0.06

NYLYPKLITYYLTSGLRWII
amyloid nucleation score: inactive

SCIIWKSWQV
amyloid nucleation score: 1.14 ± 0.095

VVLTMMHRHLYVSCKLRFCS
amyloid nucleation score: inactive

VGFPPSSTSRCR
amyloid nucleation score: inactive

RDRWI
amyloid nucleation score: inactive

CLVKHRPHSEVACGADNVCR
amyloid nucleation score: inactive

LQAYAMGNYRGDKK
amyloid nucleation score: inactive

NMYWSISDRFRIV
amyloid nucleation score: 0.424 ± 0.71

DRSDNRSGYFMINVVYNDGE
amyloid nucleation score: 0.724 ± 0.18

YFIVSWFFQNCFR
amyloid nucleation score: 1.19 ± 0.12

SDSSYSYTVF
amyloid nucleation score: inactive

LFLYQLLSGHC
amyloid nucleation score: inactive

IPTSLCGGAQLGRTRVLFLW
amyloid nucleation score: inactive

RNSLFLLPSTCSVYIWCFS
amyloid nucleation score: 2.8 ± 0.081

NYVTLKSKGITMSWLLLDYR
amyloid nucleation score: inactive

NPKLG
amyloid nucleation score: inactive

ALNWISYREMHIFIAYFADS
amyloid nucleation score: inactive

PLLFSRVSLDL
amyloid nucleation score: inactive

YLMFGTTNMAVLIRFEHH
amyloid nucleation score: inactive

ARYETRMYKFKNTPGVAERR
amyloid nucleation score: inactive

FPENIVYGHEGLD
amyloid nucleation score: inactive

HYRYGKHREKMLMSAIVWLS
amyloid nucleation score: inactive

TPCAKTIELHWCVVERRSSY
amyloid nucleation score: inactive

SCKLSHFEVTMECLEYFWMM
amyloid nucleation score: inactive

VRVVVISPGRSCRVNPSDSP
amyloid nucleation score: inactive

AFQMCATGRRIDTGDVSFVV
amyloid nucleation score: inactive

CVMGIRIHPFVVYNGQGGTS
amyloid nucleation score: inactive

LYKSNPLFPCQFCLISGKFC
amyloid nucleation score: 0.868 ± 0.12

RRRVSKANPGDVMIWSVIAK
amyloid nucleation score: inactive

PRPWRL
amyloid nucleation score: inactive

NNDMCLYLTGRRFKG
amyloid nucleation score: inactive

LSALHSVYLINAISFGFNQT
amyloid nucleation score: 1.09 ± 0.13

VYGYELRCDLKGMLLS
amyloid nucleation score: inactive
